The numbers were not newly measured in publication PMC11155677, which cites them from elsewhere.

For orientation: pKa means the negative logarithm of the acid dissociation constant.

The data set concerns the target Lys115 (UniProt position 115, LSAYPKKLGYP).

On to “Acetoacetate decarboxylase (AADase) (not stated (Clostridium acetobutylicum inferred))”, for which the pKa is 6.
